Assay in all cases: SPR
(Surface plasmon resonance follows binding to a sensor surface in real time, without labels.)

For assay [1], the target named is alpaca ACE2 extracellular domain (residues 1-740) fused with the Fc domain of mouse IgG (alpaca).
For assay [2], the target named is big-eared horseshoe bat ACE2 extracellular domain (residues 1-740) fused with the Fc domain of mouse IgG (big-eared horseshoe bat).
The target in assay [3] is bovine ACE2 extracellular domain (residues 1-740) fused with the Fc domain of mouse IgG (bovine) (UniProt Q58DD0).
For assay [4], the target named is cat ACE2 extracellular domain (residues 1-740) fused with the Fc domain of mouse IgG (cat) (UniProt Q56H28).
Assay [5] addresses dog ACE2 extracellular domain (residues 1-740) fused with the Fc domain of mouse IgG (dog).
Assay [6] has as its target fox ACE2 extracellular domain (residues 1-740) fused with the Fc domain of mouse IgG (fox).
Assay [7] concerns the target fulvous fruit bat ACE2 extracellular domain (residues 1-740) fused with the Fc domain of mouse IgG (fulvous fruit bat).
In assay [8] the target is goat ACE2 extracellular domain (residues 1-740) fused with the Fc domain of mouse IgG (goat).
In assay [9] the target is horse ACE2 extracellular domain (residues 1-740) fused with the Fc domain of mouse IgG (horse) (UniProt F6V9L3).
Assay [10] has as its target little brown bat ACE2 extracellular domain (residues 1-740) fused with the Fc domain of mouse IgG (little brown bat) (UniProt G1PXH7).
Assay [11] has as its target mink ACE2 extracellular domain (residues 1-740) fused with the Fc domain of mouse IgG (mink).
For assay [12], the target named is monkey ACE2 extracellular domain (residues 1-740) fused with the Fc domain of mouse IgG (monkey) (UniProt F7AH40).
Assay [13] has as its target pig ACE2 extracellular domain (residues 1-740) fused with the Fc domain of mouse IgG (pig) (UniProt K7GLM4).
For assay [14], the target named is rabbit ACE2 extracellular domain (residues 1-740) fused with the Fc domain of mouse IgG (rabbit) (UniProt G1TEF4).
For assay [15], the target named is raccoon dog ACE2 extracellular domain (residues 1-740) fused with the Fc domain of mouse IgG (raccoon dog) (UniProt B4XEP4).
The target of assay [16] is sheep ACE2 extracellular domain (residues 1-740) fused with the Fc domain of mouse IgG (sheep).
In assay [17] the target is wild Bactrian camel ACE2 extracellular domain (residues 1-740) fused with the Fc domain of mouse IgG (wild Bactrian camel).

In general, Kd refers to a measure of binding affinity in units of concentration.

As for “SARS-CoV-2 prototype RBD (residues 319-541) (from UniProt P0DTC2 319-541) (domain or fragment)”, the equilibrium dissociation constant (Kd) in assay [1] is 11.8 µM; in [2], 0.677 µM; in [3], 0.181 µM; in assay [4], 0.099 µM; in assay [5], 0.101 µM; in assay [6], 0.0562 µM. Besides, the Kd in assay [7] amounted to 0.157 µM; in assay [8], 0.213 µM; in assay [9] it was 0.221 µM; in [10] it was 0.13 µM; in assay [11] it was 0.305 µM; in [12], 0.022 µM. Besides, the dissociation constant (Kd) in assay [13] worked out at 0.139 µM; in [14], 0.0481 µM; in assay [15], 0.08 µM; in assay [16], 0.174 µM; in [17], 0.104 µM.

Source of the values: article PMC9274624.
